Target: hu IGF-1R(ECD)-C3-muIgG1 Fc (human; mouse)
Assay: ORIGEN dose response competition on IGF-1R(ECD)-C3-muFc beads; competitor 1 nM Ru-IGF-1

With “murine anti-IGF-1R antibody αIR3 (Calbiochem)” as the substance, how does the Max (%), maximum level of inhibition at 1 µM antibody concentration read?
Its Max (%), maximum level of inhibition at 1 µM antibody concentration is 91%.

— US20150274829A1
